# Assay results taken from patent US9382304B2, “Engineered polypeptides having enhanced duration of action with reduced immunogenicity” (priority 2011, dated 2016).
# Read-outs that look alike come from different tables or passages of the source.
# Key:
# [1] = tested on: IgG molecules present in normal human sera; test: Serum response analysis by ELISA (IgG binding to albumin binding polypeptides); conditions: 126 sera positive for one or more albumin binding polypeptides; sera diluted 50 times
# Protocol: The percentage of human serum containing IgG, capable of binding to a set of albumin binding polypeptides as disclosed herein was analyzed by ELISA.
# The plates were coated over night […] at 4° C. On the day of analysis, the plates were washed twice with tap water and blocked for 2 hours with 100 μl of phosphate buffered saline (PBS) containing 0.05% casein (PBSC). […] After incubation for two hours at room temperature (RT), the plates were washed in PBSC four times using an automated ELISA washer. […] 50 μl of the diluted sera was added per well according to the pre-made plate layout. Each serum sample was tested as a singlet. Positive and negative controls were included on each plate and for each albumin binding polypeptide. […] The plates were incubated for one hour at RT and subsequently washed four times in PBSC using an automated ELISA washer.
# [2] = tested on: CD3+ CD4+ T cells
# [3] = tested on: NIH/Swiss mice; test: OGTT DOA (oral glucose tolerance test duration of action); format: in vivo, mouse; conditions: dosed 24 hours before OGTT, even at higher doses
# From the text: Water and a standard pelleted mouse chow diet were available ad libitum, except as noted. […] Significant treatment effects were identified by ANOVA (p<0.05).
# [4] = rat, in vivo; cited from earlier work
# [5] = rabbit, in vivo; cited from earlier work
# [6] = human, in vivo; cited from earlier work
# [7] = mouse, in vivo; cited from earlier work
# [8] = biological target: T1, GLP-1 receptor (Rattus norvegicus, UniProt P32301); test: GLP-1 receptor functional assay (cAMP induction, HTRF) in rat thyroid carcinoma 6-23 (clone 6) cells; format: cell-based
# T1 construct: functional activity was determined using cells that endogenously express GLP-1R; endogenous in cells; host or cells: rat thyroid carcinoma 6-23 (clone 6) cells (ATCC CRL-1607)
# T1 sequence (P32301 22-463): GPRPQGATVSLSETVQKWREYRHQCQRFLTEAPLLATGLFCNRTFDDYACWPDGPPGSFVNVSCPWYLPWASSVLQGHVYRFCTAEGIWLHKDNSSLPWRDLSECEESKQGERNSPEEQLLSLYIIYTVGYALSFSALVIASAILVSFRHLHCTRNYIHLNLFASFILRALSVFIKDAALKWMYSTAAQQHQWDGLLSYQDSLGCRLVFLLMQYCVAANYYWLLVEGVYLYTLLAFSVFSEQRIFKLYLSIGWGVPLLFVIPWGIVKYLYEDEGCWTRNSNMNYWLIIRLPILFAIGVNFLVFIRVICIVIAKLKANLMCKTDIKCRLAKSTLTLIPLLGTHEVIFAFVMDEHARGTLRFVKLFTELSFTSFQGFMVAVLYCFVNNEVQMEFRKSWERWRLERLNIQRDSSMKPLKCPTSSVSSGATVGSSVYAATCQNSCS
# Protocol: In another embodiment the cell-based assay is a homogeneous time-resolved fluorescence assay (HTRF®). HTRF® kits are commercially available from Cisbio International (Bedford, Mass.). […] See worldwideweb.htrf.com/products/gper/camp/, the disclosure of which is incorporated by reference herein. […] The HTRF® standards and calibrations are prepared following the instructions in the kit. Assays may be performed with or without the presence of albumin.
# See for example United States Patent Application Publication US20110097751A1, incorporated by reference for the assay method. In this example, functional activity was determined using cells that endogenously express GLP-1R, and cAMP induction is detected as a measure of exendin activity.
# The data above was determined in the presence of about 0.1% bovine serum albumin (BSA).
molecule,measurement,setting,value
CC[C@H](C)[C@H](NC(=O)[C@H](C)NC(=O)[C@H](CC(=O)O)NC(=O)[C@H](CCCCN)NC(=O)[C@H](CC(C)C)NC(=O)[C@H](C)NC(=O)[C@H](CCC(=O)O)NC(=O)[C@@H](NC(=O)CNC(=O)[C@H](CCC(=O)O)NC(=O)[C@@H](NC(=O)[C@@H](NC(=O)[C@H](CCCCN)NC(=O)[C@H](C)NC(=O)[C@H](CCCCN)NC(=O)[C@H](CC(=O)O)NC(=O)[C@@H](NC(=O)[C@H](CC(C)C)NC(=O)[C@H](CCCNC(=N)N)NC(=O)[C@H](CCCCN)NC(=O)[C@H](Cc1ccc(O)cc1)NC(=O)[C@H](Cc1ccccc1)NC(=O)[C@H](CC(=O)O)NC(=O)[C@H](CO)NC(=O)[C@@H](NC(=O)CNC(=O)[C@H](Cc1ccc(O)cc1)NC(=O)[C@H](CSC1CC(=O)N(CCNC(=O)CN2CCN(CC(=O)O)CCN(CC(=O)O)CCN(CC(=O)O)CC2)C1=O)NC(=O)[C@H](CC(=O)O)NC(=O)[C@H](CC(C)C)NC(=O)[C@H](CCC(=O)O)NC(=O)[C@H](C)NC(=O)[C@H](CC(N)=O)NC(=O)[C@H](C)NC(=O)[C@H](C)NC(=O)[C@H](CCC(=O)O)NC(=O)[C@H](CCCCN)NC(=O)[C@H](C)NC(=O)[C@H](CO)NC(=O)[C@H](C)NC(=O)[C@H](CC(C)C)NC(=O)CN)C(C)C)[C@@H](C)CC)[C@@H](C)O)C(C)C)C(C)C)C(=O)N[C@@H](CC(C)C)C(=O)N[C@@H](C)C(=O)N[C@@H](C)C(=O)N[C@@H](CC(C)C)C(=O)N1CCC[C@H]1C(=O)O (some centres unmarked) [PEP07968],"IgG binding reactivity (average OD-value, percentage of serum with IgG binding)",[1],least reactivity
same,immunogenicity definition,[2],non-immunogenic
same,"number of donors in which CD3+ CD4+ T cells proliferation was induced, compared to the albumin control",[2],1 donors
GSLAEAKEAANAELDSYGVSDFYKRLIDKAKTVEGVEALKDAILAALP [PEP07986],activity in OGTT DOA when dosed at t-24 hours,[3],inactive
albumin,half-life,[4],45.6 h
same,half-life,[5],134 h
same,half-life,[6],456 h
same,half-life,[7],24 h
rabbit serum albumin: rabbit serum albumin,half-life,[5],about 5 days
HGEGTFTSDLSKQLEEEAVRLFIEWLKNTGGGGSASGSLAEAKEAANAELDSYGVSDFYKRLIDKAKTVEGVEALKDAILAALP (protein) HGEGTFTSDLSKQLEEEAVRLFIEWLKNTGGGGSASGSLAEAKEAANAELDSYGVSDFYKRLIDKAKTVEGVEALKDAILAALP,activity in OGTT DOA when dosed at t-24 hours,[3],did not display 24 duration
same,in vitro activity against the GLP-1 receptor,[8],active in vitro
